One may read the Kd as the concentration at which binding is half-saturated. A high value points to a looser complex.

Sequences and labels used below:
B1: LXRβ LBD (protein)
chain: AQELMIQQLVAAQLQCNKRSFSDQPKVTPWPLGADPQSRDARQQRFAHFTELAIISVQEIVDFAKQVPGFLQLGREDQIALLKASTIEIMLLETARRYNHETECITFLKDFTYSKDDFHRAGLQVEFINPIFEFSRAMRRLGLDDAEYALLIAINIFSADRPNVQEPGRVEALQQPYVEALLSYTRIKRPQDQLRFPRMLMKLVSLRTLSSVHSEQVFALRLQDKKLPPLLSEIWDVHE
modifications: BMS-852927
B2: LXRβ LBD (protein)
chain: B1 chain
modifications: 24,25EC
B3: LXRα LBD (protein)
chain: EQLGMIEKLVAAQQQCNRRSFSDRLRVTPWPMAPDPHSREARQQRFAHFTELAIVSVQEIVDFAKQLPGFLQLSREDQIALLKTSAIEVMLLETSRRYNPGSESITFLKDFSYNREDFAKAGLQVEFINPIFEFSRAMNELQLNDAEFALLIAISIFSADRPNVQDQLQVERLQHTYVEALHAYVSIHHPHDRLMFPRMLMKLVSLRTLSSVHSEQVFALRLQDKKLPPLLSEIWDVHE
modifications: AZ6
B4: LXRα LBD (protein)
chain: B3 chain
modifications: lipogenic agonists (average)
B5: LXRβ LBD (protein)
chain: B1 chain
B6: LXRα LBD (protein)
chain: B3 chain

The target in the first experiment is SRC1 peptide (Homo sapiens, UniProt Q15788). As to the kind of experiment: SPR. On the technique in general: SPR reads the build-up and loss of mass on a sensor chip optically.
Sequence of SRC1 peptide (Q15788 2-1441): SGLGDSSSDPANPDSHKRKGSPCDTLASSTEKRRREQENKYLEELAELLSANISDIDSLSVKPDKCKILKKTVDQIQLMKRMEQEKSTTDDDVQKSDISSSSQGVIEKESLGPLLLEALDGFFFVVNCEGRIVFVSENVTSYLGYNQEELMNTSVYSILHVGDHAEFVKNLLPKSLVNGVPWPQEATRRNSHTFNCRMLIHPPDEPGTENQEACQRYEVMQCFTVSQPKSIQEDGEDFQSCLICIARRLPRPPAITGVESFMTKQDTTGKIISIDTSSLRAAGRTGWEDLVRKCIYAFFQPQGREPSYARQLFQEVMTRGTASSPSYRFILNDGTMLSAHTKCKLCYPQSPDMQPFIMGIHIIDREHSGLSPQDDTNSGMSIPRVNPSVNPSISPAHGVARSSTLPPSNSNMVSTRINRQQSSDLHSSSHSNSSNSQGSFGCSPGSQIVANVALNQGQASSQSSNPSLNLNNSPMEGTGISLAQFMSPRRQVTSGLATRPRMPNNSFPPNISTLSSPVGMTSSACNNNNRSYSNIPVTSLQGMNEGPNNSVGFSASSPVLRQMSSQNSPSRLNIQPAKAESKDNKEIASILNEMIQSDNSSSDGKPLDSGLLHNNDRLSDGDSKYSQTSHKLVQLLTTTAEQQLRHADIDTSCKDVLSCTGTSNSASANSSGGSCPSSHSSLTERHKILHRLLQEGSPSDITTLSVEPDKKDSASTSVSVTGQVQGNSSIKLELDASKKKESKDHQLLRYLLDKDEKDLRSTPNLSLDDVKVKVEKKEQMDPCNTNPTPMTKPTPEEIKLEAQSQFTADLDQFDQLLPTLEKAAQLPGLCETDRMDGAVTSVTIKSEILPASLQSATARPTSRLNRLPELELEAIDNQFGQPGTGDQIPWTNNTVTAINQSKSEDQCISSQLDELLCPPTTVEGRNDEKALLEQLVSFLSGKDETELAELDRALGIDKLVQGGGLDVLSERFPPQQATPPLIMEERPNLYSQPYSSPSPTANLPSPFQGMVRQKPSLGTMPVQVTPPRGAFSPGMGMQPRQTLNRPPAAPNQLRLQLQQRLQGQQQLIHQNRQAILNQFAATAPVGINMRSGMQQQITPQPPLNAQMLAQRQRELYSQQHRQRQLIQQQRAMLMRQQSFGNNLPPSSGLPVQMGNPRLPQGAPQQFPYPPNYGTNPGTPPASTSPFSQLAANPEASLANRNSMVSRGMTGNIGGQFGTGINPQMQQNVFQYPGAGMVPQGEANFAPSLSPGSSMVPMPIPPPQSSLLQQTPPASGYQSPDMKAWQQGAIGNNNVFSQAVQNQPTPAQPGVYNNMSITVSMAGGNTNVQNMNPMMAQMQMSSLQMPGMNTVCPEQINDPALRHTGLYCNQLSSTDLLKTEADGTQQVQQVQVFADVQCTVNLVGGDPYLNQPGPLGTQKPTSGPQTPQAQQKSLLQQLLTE
Take B1: the affinity, expressed as Kd, was 19800 nM.
Still for that read-out and setting: the result for B2 reads 2500 nM.
B3: the Kd is 1500 nM.
For the molecule B4, the Kd stood at 1200 nM.

In a further experiment the target is NCOR1 peptide (Homo sapiens, UniProt O75376). The experiment in a line: SPR.
Sequence of NCOR1 peptide (O75376 whole entry): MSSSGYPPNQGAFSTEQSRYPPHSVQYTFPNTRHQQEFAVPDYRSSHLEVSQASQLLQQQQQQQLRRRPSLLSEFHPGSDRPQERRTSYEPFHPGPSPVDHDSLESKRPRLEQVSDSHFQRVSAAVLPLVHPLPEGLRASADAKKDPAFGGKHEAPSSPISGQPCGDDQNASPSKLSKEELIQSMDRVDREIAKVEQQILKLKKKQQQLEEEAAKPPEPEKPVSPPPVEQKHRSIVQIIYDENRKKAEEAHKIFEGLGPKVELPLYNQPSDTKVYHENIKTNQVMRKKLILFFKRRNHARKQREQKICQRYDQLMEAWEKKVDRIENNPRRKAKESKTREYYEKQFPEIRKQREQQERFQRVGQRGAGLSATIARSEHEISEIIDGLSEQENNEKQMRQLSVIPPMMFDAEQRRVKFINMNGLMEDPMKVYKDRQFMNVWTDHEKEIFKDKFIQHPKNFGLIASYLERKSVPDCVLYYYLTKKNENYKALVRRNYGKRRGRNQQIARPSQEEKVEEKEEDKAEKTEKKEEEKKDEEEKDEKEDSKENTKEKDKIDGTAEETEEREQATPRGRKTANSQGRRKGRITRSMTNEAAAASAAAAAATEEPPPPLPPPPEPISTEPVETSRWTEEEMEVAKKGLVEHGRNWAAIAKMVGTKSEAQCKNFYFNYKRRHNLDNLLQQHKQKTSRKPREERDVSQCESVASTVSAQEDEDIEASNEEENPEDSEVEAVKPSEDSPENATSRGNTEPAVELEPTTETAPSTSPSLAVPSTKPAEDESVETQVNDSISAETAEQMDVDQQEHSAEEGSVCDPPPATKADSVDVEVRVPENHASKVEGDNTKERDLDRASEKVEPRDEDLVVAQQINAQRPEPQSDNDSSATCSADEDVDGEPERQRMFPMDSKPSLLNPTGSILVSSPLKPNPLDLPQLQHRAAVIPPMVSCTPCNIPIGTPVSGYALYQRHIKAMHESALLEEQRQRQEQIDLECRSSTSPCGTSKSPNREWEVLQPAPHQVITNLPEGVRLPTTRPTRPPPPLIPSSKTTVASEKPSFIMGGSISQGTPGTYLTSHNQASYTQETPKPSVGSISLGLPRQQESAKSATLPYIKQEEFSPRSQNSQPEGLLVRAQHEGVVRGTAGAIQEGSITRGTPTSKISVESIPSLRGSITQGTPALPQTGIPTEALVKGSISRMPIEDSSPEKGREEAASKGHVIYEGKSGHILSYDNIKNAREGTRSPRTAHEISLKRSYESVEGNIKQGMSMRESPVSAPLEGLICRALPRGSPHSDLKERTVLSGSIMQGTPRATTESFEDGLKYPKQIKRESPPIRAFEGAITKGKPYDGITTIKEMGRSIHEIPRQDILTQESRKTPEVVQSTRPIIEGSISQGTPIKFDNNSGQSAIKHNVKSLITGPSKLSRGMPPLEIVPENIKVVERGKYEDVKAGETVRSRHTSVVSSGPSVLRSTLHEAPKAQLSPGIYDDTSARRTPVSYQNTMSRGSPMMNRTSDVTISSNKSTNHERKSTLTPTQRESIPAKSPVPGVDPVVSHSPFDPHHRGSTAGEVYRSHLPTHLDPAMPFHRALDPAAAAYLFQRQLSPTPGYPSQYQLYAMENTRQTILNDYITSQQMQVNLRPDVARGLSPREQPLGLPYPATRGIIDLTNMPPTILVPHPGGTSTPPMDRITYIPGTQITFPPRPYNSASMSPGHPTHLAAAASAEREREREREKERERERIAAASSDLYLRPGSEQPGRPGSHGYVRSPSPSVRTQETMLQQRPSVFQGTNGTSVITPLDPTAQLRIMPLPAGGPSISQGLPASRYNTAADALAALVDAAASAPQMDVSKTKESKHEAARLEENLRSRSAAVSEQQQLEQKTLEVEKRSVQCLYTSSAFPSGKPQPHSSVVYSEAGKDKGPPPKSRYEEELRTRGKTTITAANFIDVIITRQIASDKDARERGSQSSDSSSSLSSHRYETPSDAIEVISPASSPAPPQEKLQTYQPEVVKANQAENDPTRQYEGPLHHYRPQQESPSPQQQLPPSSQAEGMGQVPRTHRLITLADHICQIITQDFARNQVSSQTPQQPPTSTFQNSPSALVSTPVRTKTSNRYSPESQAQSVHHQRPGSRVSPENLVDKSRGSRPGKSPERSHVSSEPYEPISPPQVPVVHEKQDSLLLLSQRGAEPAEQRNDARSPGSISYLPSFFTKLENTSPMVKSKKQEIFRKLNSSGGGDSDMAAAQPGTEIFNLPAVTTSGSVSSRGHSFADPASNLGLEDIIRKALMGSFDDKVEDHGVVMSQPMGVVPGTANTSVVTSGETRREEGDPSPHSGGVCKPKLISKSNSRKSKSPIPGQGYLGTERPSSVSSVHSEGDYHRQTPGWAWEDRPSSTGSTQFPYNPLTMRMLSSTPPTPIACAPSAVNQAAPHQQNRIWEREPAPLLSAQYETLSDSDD
Molecule B5 came in with a Kd of 500 nM.
The molecule B6 returned a Kd of 800 nM.

The values are drawn from PMC6874530 (2019).
